Results on 5 molecules are retold here after patent publication US20030049211A1, “Remedies and preventives for dental diseases” (priority 2000, published 2003).

Test [1] deals with T1, PTHrP (1-34) (Homo sapiens, UniProt P12272). In words: ELISA, determination of antigen-binding ability. Also noted: coating buffer supplemented with 1 μg/ml of human PTHrP (1-34) (Peptide Research Institute); purchased Peptide Research Institute. The following applies: antibodies expressed in COS-7 cells; H-chain humanized version a. On the procedure:
An ELISA plate for the determination of antigen-binding ability was prepared as follows. Each well of a 96-well ELISA plate was coated with 100 μl of a coating buffer supplemented with 1 μg/ml of human PTHrP (1-34) (Peptide Research Institute), and then blocked with 200 μl of a dilution buffer. Each well was added with each of the serial dilutions of the COS-7 cell culture supernatant in which each of the chimeric antibodies had been expressed, or added with each of the serial dilutions of each of the chimeric antibodies per se in a purified form. After the plate was incubated at room temperature and washed with PBS-Tween 20, each well of the plate was added with 100 μl of a solution of alkaline phosphatase-conjugated goat anti-human IgG antibodies (TAGO). After the plate was incubated at room temperature and washed with PBS-Tween 20, each well of the plate was added with 1 mg/ml of a substrate solution (“Sigma 104”, p-nitrophenylphosphoric acid, SIGMA). The solution was measured on its absorbance at 405 nm using Microplate Reader (Bio Rad).
An ELISA plate for determining antigen-binding ability was prepared as follows. Each well of a 96-well ELISA plate (Maxisorp, NUNC) was coated with 100 μl of a coating buffer containing 1 μg/ml of human PTHrP (1-34) and then blocked with 200 μl of a dilution buffer. Subsequently, each well was added with each of the serial dilutions of the COS-7 cell culture supernatant in which each of the hybrid antibodies and humanized antibodies was expressed, or added with each of the serial dilutions of each of the hybrid antibodies and humanized antibodies in a purified form. The plate was incubated at room temperature and washed with PBS-Tween 20. Subsequently, each well was added with 100 μl of alkaline phosphatase-conjugated goat anti-human IgG antibody (TAGO). The plate was incubated at room temperature and washed with PBS-Tween 20. Subsequently, each well was added with 1 mg/ml of a substrate solution (“Sigma 104”, p-nitrophenylphosphoric acid, SIGMA). The solution was measured on its absorbance at 405 nm using Microplate Reader (Bio Rad).

Test [2] concerns the target T1, PTHrP (1-34). Description: Hybridoma screening by solid phase RIA. The class given is binding. More on the design: mixed with an equivalent amount of 4 ng/ml of PTHrP (1-34); host or cells: peptide added from outside to rat ROS17/2.8-5 cells. The following applies: hybridoma culture supernatant. On the procedure:
The screening of hybridomas was performed by determining the presence of PTHrP-recognition antibodies in the culture supernatant of the wells in which cell growth had been observed in HAT medium, by solid phase RIA method. The hybridomas were collected from the wells in which the binding ability to the PTHrP-recognition antibodies had been confirmed. The hybridomas thus obtained was suspended into RPMI-1640 medium containing 15% FCS supplemented with OPI-supplement (Sigma), followed by unification of the hybridomas by limiting dilution method.

Substitutions are numbered along the chain they refer to.

B1: m/hMBC1La λ: hybrid antibody: humanized H-chain with mouse FR1,2/human FR3,4 hybrid L-chain (from version a) (antibody, V domains shown)
VH: QVQLVESGGGVVQPGRSLRLSCAASGFTFSSYGMSWVRQAPGKGLEWVATISSGGSYTYYPDSVKGRFTISRDNSKNTLYLQMNSLRAEDTAVYYCARQTTMTYFAYWGQGTLVTVSS
VL: QLVLTQSSSASFSLGASAKLTCTLSSQHSTYTIEWYQQQPLKPPKYVMDLKQDGSHSTGDGIPDRFSGSSSGAERYLTISSLQSEDEADYYCGVGDTIKEQFVYVFGGGTKLTVL
As for B1, the “antigen-binding (PTHrP-binding) activity compared with the chimeric #23-57-137-1 antibody” value with PTHrP (1-34) [1] is on record as “the same level of antigen-binding activity as that of the chimeric #23-57-137-1 antibody”.

B2: m/hMBC1Ldλ: hybrid antibody: humanized H-chain with mouse FR1,2/human FR3,4 hybrid L-chain (from version d, 87 isoleucine) (antibody, V domains shown)
VH: B1 VH
VL: B1 VL with Y91I
For the molecule B2, the “antigen-binding (PTHrP-binding) activity compared with the chimeric #23-57-137-1 antibody” value in the test with PTHrP (1-34) [1] is recorded as “the same level of antigen-binding activity as that of the chimeric #23-57-137-1 antibody”.

B3: hmmMBC1L(λ): hybrid antibody: humanized H-chain with human FR1/mouse FR2,3,4 hybrid L-chain (antibody, V domains shown)
VH: B1 VH
VL: QLVLTQSPSASASLGASVKLTCTLSSQHSTYTIEWYQQQPLKPPKYVMDLKQDGSHSTGDGIPDRFSGSSSGADRYLSISNIQPEDEAMYICGVGDTIKEQFVYVFGGGTKVTVL
As to B3, the “antigen-binding (PTHrP-binding) activity compared with the chimeric #23-57-137-1 antibody” value in the test with PTHrP (1-34) [1] is given as “the same level of antigen-binding activity as that of the chimeric #23-57-137-1 antibody”.

B4: #23-57-137-1: mouse monoclonal antibody against human PTHrP (1-34) from hybridoma #23-57-137-1 (FERM BP-5631) (antibody, V domains shown)
VH: EVQLVESGGDLVKPGGSLKLSCAASGFTFSSYGMSWIRQTPDKRLEWVATISSGGSYTYYPDSVKGRFTISRDNAKNTLYLQMSSLKSEDTAMFYCARQTTMTYFAYWGQGTLVTVSA
VL: QLVLTQSSSASFSLGASAKLTCTLSSQHSTYTIEWYQQQPLKPPKYVMDLKQDGSHSTGDGIPDRFSGSSSGADRYLSISNIQPEDEAMYICGVGDTIKEQFVYVFGGGTKVTVLGQP
On to B4, for which the “binding ability to PTHrP (1-34)” value with PTHrP (1-34) [2] was “high binding ability”.

B5: antibody having both a humanized H-chain version “a” and a chimeric L-chain: antibody with humanized #23-57-137-1 H-chain version a and chimeric L-chain (antibody, V domains shown)
VH: B1 VH
VL: B4 VL
In the case of B5, in the test with PTHrP (1-34) [1], the “antigen-binding (PTHrP-binding) activity compared with the chimeric #23-57-137-1 antibody” value was “the same level of PTHrP-binding activity as that of a chimeric antibody”.
